From PMC12584684, “A minimal SufB2C2 complex functions as a [4Fe-4S] cluster scaffold in methanogenic archaea” (Microbiology Spectrum, 2025)
Each block holds one molecule with its values, some of them ahead of it.

How the values were obtained:
MMP SufB2C2 = biological target: T1, MMP SufB2C2 (Methanococcus maripaludis, UniProt Q6LY25); assay: iron quantification, UV-visible and EPR spectroscopy, as purified; format: binding; details: anoxic purification from native host; EPR at 10 K after 5 mM dithionite
T1 construct: gene MMP1168; sufCB operon, N-terminal Strep-tag on SufC, expressed in M. maripaludis S0001 and purified anoxically; SufB2C2 heterotetramer; with Fe-S cluster assembly protein SufB
T1 sequence (Q6LY25 1-248): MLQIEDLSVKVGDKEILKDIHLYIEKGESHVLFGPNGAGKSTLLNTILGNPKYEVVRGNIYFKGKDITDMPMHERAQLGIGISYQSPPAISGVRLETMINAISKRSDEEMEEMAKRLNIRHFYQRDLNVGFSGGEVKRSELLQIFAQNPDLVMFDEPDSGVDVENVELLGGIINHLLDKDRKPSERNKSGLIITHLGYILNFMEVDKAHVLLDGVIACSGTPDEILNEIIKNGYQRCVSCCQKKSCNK
T1 sequence (Q6LY24 1-418 partner): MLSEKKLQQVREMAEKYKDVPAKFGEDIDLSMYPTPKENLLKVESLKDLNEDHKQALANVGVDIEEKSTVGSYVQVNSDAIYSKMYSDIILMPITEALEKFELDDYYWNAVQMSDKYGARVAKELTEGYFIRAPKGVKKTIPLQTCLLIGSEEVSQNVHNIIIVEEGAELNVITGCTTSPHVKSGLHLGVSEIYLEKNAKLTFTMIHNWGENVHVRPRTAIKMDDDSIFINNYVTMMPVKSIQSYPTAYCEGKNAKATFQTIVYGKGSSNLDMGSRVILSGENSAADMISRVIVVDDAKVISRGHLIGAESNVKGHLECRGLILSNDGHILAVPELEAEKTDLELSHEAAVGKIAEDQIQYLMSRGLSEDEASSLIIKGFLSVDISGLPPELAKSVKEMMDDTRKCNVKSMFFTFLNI

[1] = biological target: His6-tagged Methanothermococcus thermolithotrophicus SufC (Methanothermococcus thermolithotrophicus); assay: SEC; Superdex 200 10/300 GL, 50 mM sodium HEPES, 200 mM NaCl, 5 mM MgCl2, pH 7.5; samples pretreated with 10 mM EDTA and 10 mM DTH overnight; calibrated with standards of 29-700 kDa; fractions on SDS-PAGE
MTH SufB2C2 = system: T2, MTH SufB2C2; assay: malachite green Pi release ATPase assay; format: biochemical, Methanothermococcus thermolithotrophicus; details: 60°C, pH 7.5, 5 mM MgCl2, 0-2 mM ATP, holo-form, anoxic
T2 construct: gene sufC; N-terminal His6-SufC co-expressed with untagged SufB in E. coli Rosetta 2(DE3); SufB2C2 heterotetramer, ~156 kDa by SEC; with Fe-S cluster assembly protein SufB
Text: malachite green Pi release ATPase assay on MTH SufB2C2 | kinetic parameters (Vmax, Km, kcat, and catalytic efficiency) for holo-forms of MTH SufC and SufB2C2

MTH SufC = system: T3, MTH SufC; assay: malachite green Pi release ATPase assay; format: biochemical, Methanothermococcus thermolithotrophicus; details: 60°C, pH 7.5, 5 mM MgCl2, 0-2 mM ATP, holo-form, anoxic
T3 construct: pET15b N-terminal His6-tag, E. coli Rosetta 2(DE3), anoxic Ni-NTA; monomer 30 kDa, dimer by SEC
Text: malachite green Pi release ATPase assay on MTH SufC | kinetic parameters (Vmax, Km, kcat, and catalytic efficiency) for holo-forms of MTH SufC and SufB2C2

[2] = biological target: His6-tagged Methanothermococcus thermolithotrophicus SufB (Methanothermococcus thermolithotrophicus); assay: SEC; Superdex 200 10/300 GL, 50 mM sodium HEPES, 200 mM NaCl, 5 mM MgCl2, pH 7.5; samples pretreated with 10 mM EDTA and 10 mM DTH overnight; calibrated with standards of 29-700 kDa; fractions on SDS-PAGE
[3] = biological target: His6-tagged Methanothermococcus thermolithotrophicus SufC (Methanothermococcus thermolithotrophicus)
[4] = biological target: His6-tagged Methanothermococcus thermolithotrophicus SufC (Methanothermococcus thermolithotrophicus); remark: listed apart in the source

Molecule: [S]12[Fe]3[S]4[Fe]1[S]1[Fe]2[S]3[Fe]41 [[4Fe-4S] cluster]
Fe atoms per protomer (MMP SufB2C2): 1.6 ± 0.3 Fe per protomer

Molecule: Nc1ncnc2c1ncn2[C@@H]1O[C@H](COP(=O)(O)OP(=O)(O)OP(=O)(O)O)[C@@H](O)[C@H]1O [ATP]
Km (MTH SufB2C2): 2600 ± 700 µM
Km (MTH SufC): 1900 ± 800 µM

Molecule: His6-tagged Methanothermococcus thermolithotrophicus SufB (natural protein)
stoichiometry N [2]: 2

Next, values leading:

stoichiometry N [1]: 2
Molecule: His6-tagged Methanothermococcus thermolithotrophicus SufC (natural protein)

ATPase activity (malachite green) of the MTH SufB2C2 complex against MTH SufC alone at 60°C [3]: 7 fold
activation of apo-AcnB (Fe-S cluster transfer, aconitase activity) by the MTH SufB2C2 complex against MTH SufC alone [4]: 2 fold
Molecule: untagged Methanothermococcus thermolithotrophicus SufB (natural protein)
